Ends that are not written are not given here. * marks the point of attachment. Palmitoyl = CCCCCCCCCCCCCCCC(=O)*
T1: GLP-1 receptor present in the plasma membranes isolated from RINm5F cells (UniProt P32301 22-463, limits assumed)
T1 sequence (looked up): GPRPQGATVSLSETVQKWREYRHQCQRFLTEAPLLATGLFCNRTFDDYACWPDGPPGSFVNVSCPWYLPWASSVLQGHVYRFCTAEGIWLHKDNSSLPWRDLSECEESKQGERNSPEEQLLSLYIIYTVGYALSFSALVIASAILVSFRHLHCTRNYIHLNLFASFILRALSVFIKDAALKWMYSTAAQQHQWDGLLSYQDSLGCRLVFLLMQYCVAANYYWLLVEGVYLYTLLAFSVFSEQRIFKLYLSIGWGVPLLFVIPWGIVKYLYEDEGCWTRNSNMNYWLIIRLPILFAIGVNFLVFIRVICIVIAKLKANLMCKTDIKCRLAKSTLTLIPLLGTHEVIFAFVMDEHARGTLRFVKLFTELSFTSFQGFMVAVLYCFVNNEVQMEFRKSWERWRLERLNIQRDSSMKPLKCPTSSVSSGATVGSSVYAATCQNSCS


Legend:
[1] = molecular target: T2, glucagon receptor present in the plasma membranes isolated from rat liver (rat, UniProt P30082 27-485); test: cell-based or functional assay
T2 sequence (P30082 27-485): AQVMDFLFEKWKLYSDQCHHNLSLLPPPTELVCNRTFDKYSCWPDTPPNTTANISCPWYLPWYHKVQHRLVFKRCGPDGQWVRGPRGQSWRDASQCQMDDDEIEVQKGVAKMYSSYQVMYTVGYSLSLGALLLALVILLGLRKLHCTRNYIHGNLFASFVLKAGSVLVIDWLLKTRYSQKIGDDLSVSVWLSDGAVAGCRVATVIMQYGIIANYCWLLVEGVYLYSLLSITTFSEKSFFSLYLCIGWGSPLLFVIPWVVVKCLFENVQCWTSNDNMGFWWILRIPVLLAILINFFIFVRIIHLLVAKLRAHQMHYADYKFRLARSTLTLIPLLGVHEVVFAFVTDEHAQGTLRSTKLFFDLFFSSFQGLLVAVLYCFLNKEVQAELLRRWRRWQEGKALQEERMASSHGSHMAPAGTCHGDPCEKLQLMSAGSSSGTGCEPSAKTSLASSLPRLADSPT

[2] = molecular target: T1, GLP-1 receptor present in the plasma …; test: cell-based or functional assay
[3] = molecular target: T1, GLP-1 receptor present in the plasma …; test: 125I-GLP-1 displacement, RINm5F plasma membranes
Method: (§1) Competitive binding of some polypeptides of the invention to RINm5F cell plasma membranes was measured as follows. Ninety-six-well GF/C filtration plates (Millipore, Bedford, Ma.) were blocked with 0.3% PEI for at least one hour and washed twice with binding buffer consisting of 20 mM Tris, 2 mM EDTA, pH 7.5, 1 mg/ml BSA, and 1 mg/ml bacitracin. […] The plates were dried, scintillant was added to each well, and cpm per well determined using a Wallac Microbeta counter.

[4] = molecular target: T2, glucagon receptor present in the plasma …; test: 125I-glucagon displacement, rat liver plasma membranes
Method: as §1, with “rat liver” for “RINm5F cell”, “0.1%” for “0.3%”

| Binder | % Inhib glucagon stimulated cAMP increase (10 uM peptide, rat hepatocytes) [1] | % GLP1 max, cAMP SPA in RINm5F cells [2] | Relative Potency (%), cAMP SPA in RINm5F cells [2] | IC50 [3] | IC50 [4] |
| --- | --- | --- | --- | --- | --- |
| HSQGTFTSDYAKYLDAARAKEFIAWLVKGR-NH2 [G57] | 18.4% | 132% | 18.3% | 14.7 nM | 178 nM |
| HSQGTFTSDYAAYLDARRAKEFIAWLVKGR-NH2 [G56] | 28.6% | 115% | 37.2% | 6.6 nM | 125 nM |
| HSQGTFTSDYAKYLDARRAK(Palmitoyl)EFIAWLVKGR-NH2 (N-terminus assumed; SMILES CCCCCCCCCCCCCCCC(=O)NCCCC[C@H](NC(=O)[C@H](C)NC(=O)[C@H](CCCNC(=N)N)NC(=O)[C@H](CCCNC(=N)N)NC(=O)[C@H](C)NC(=O)[C@H](CC(=O)O)NC(=O)[C@H](CC(C)C)NC(=O)[C@H](Cc1ccc(O)cc1)NC(=O)[C@H](CCCCN)NC(=O)[C@H](C)NC(=O)[C@H](Cc1ccc(O)cc1)NC(=O)[C@H](CC(=O)O)NC(=O)[C@H](CO)NC(=O)[C@@H](NC(=O)[C@H](Cc1ccccc1)NC(=O)[C@@H](NC(=O)CNC(=O)[C@H](CCC(N)=O)NC(=O)[C@H](CO)NC(=O)[C@@H](N)Cc1c[nH]cn1)[C@@H](C)O)[C@@H](C)O)C(=O)N[C@@H](CCC(=O)O)C(=O)N[C@@H](Cc1ccccc1)C(=O)N[C@H](C(=O)N[C@@H](C)C(=O)N[C@@H](Cc1c[nH]c2ccccc12)C(=O)N[C@@H](CC(C)C)C(=O)N[C@H](C(=O)N[C@@H](CCCCN)C(=O)NCC(=O)N[C@@H](CCCNC(=N)N)C(N)=O)C(C)C)[C@@H](C)CC) [G87] | 59% | 100% | 6.1% | 98.6 nM | 620 nM |

More lines, in order of falling IC50 [3], values ahead:

| % Inhib glucagon stimulated cAMP increase (10 uM peptide, rat hepatocytes) [1] | % GLP1 max, cAMP SPA in RINm5F cells [2] | Relative Potency (%), cAMP SPA in RINm5F cells [2] | IC50 [3] | IC50 [4] | Binder |
| --- | --- | --- | --- | --- | --- |
| 32.1% | 116% | 18.6% | 9.8 nM | 139 nM | HSQGTFTSDYARYLDARRAKEFIAWLVKGR-NH2 [G55] |
| 27.9% | 95.8% | 64.5% | 1.5 nM | 16.1 nM | HSQGTFTSDYARYLDARRAREFIAWLVRGRGK [G85] |

Source: patent US20040002442A1 (Bayer, published 2004)
